Measurements: US20110165145A1 (published 2011)
Changes are numbered by the printed parent chain. Blank lines part the entries; values can stand above or below the binder they belong to.

Experiments:
[1] = target: T1, IGF-IIE (amino acids 1-104 of pro-IGF-II) (human, UniProt P01344 25-128); test: competition SPR (BIACORE T100), affinity in solution, free ligand read on huIR-A ECD; measurement 1
T1 construct: Biotinylated in the selections; also called IGF-IIE (104aa)
Protocol: (§1) Competition SPR (BIACORE®) was performed under conditions of partially mass-transport limited conditions according to previously described methodology (Nieba et al., 1996). Approximately 16,700 relative response units (RU) of huIR-A (-exon11) ectodomain was coupled by standard amine chemistry to a BIACORE® CM5 chip sensor. Uncoated flow-cell surface was used as a reference. […] Regeneration of the surface was achieved by injection of 30 ul NaCltrate/NaCl pH 4.5. […] These Req estimates were subsequently plotted against total concentrations of Fab used and the resulting inhibition curve was utilised to calculate dissociation constant (KD).

[2] = target: T2, insulin-like growth factor II (IGF-II), amino acids 1-67 (human, UniProt P01344 25-91); test: as above
T2 construct: recombinant; also called IGF-II (67aa); IGF2
T2 sequence (P01344 25-91): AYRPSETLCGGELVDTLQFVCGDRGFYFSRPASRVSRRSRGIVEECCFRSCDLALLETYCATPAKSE
Protocol: as §1

[3] = target: T2, insulin-like growth factor II (IGF-II), …; test: SPR (value equals that of Table 6, there under IgGs); Fab, not IgG
[4] = target: T1, IGF-IIE (amino acids 1-104 of …); test: competition SPR (BIACORE T100), affinity in solution, free ligand read on huIR-A ECD; measurement 2
Protocol: as §1

[5] = target: T2, insulin-like growth factor II (IGF-II), …; test: as above
Protocol: as §1

[6] = target: T1, IGF-IIE (amino acids 1-104 of …); test: SPR (Flexchip), Fab, 2nd of duplicate
[7] = target: T2, insulin-like growth factor II (IGF-II), …; test: SPR (Flexchip), Fab, 2nd of duplicate
[8] = target: T1, IGF-IIE (amino acids 1-104 of …); test: SPR (Flexchip), Fab, 1st of duplicate
[9] = target: T2, insulin-like growth factor II (IGF-II), …; test: SPR (Flexchip), Fab, 1st of duplicate
[10] = target: T3, insulin-like growth factor I (IGF-I) (UniProt P05019 49-118); test: cell-based or functional assay
T3 sequence (P05019 49-118 limits assumed): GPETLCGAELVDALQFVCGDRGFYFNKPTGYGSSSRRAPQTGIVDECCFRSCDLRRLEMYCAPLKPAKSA

[11] = target: T2, insulin-like growth factor II (IGF-II), …; test: SPR, compared with DX-2647
[12] = target: T1, IGF-IIE (amino acids 1-104 of …); test: cell-based or functional assay
[13] = target: T2, insulin-like growth factor II (IGF-II), …; test: cell-based or functional assay
[14] = target: T3, insulin-like growth factor I (IGF-I); test: SPR
IGFBP-1 = target: T4, IGFBP-1 (UniProt P08833 26-259); test: SPR: DX-2647 captured through its Fc, IGFBP-1 alone injected; concentration not on the sheet
T4 sequence (looked up): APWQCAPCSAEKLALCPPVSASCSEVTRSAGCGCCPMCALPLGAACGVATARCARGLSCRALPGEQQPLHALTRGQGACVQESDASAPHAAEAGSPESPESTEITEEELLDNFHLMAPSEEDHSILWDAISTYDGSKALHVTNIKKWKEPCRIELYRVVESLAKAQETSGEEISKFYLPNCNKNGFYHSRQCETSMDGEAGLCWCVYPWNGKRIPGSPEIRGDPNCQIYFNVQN

[15] = target: pre-formed complex of IGF-II and IGFBP-1 (human, UniProt P08833 26-259); test: SPR: DX-2647 captured through its Fc, pre-formed IGF-II/IGFBP-1 complex injected; concentration not on the sheet
[16] = target: T3, insulin-like growth factor I (IGF-I); test: SPR, captured IgG, 1:1 binding model
[17] = target: T1, IGF-IIE (amino acids 1-104 of …); test: SPR, captured IgG, 1:1 binding model
[18] = target: T2, insulin-like growth factor II (IGF-II), …; test: SPR, captured IgG, 1:1 binding model
[19] = target: T2, insulin-like growth factor II (IGF-II), …; test: SPR, IgG captured on anti-human Fc chip, ligand as analyte

T1 sequence (P01344 25-128): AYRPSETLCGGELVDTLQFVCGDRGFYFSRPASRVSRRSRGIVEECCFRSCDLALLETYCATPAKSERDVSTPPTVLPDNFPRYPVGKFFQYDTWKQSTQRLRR

Kd [1]: 1.91 nM
Kd [2]: 1.03 nM
Kd [3]: 0.14 nM
Kd [4]: 0.352 nM
Kd [5]: 0.503 nM
Kd [6]: 0.29 nM
Kd [7]: 1.2 nM
Kd [8]: 0.32 nM
Kd [9]: 0.45 nM
IGF-I stimulated Ba/F3 cell proliferation, sFab at 50 µg/ml [10]: ~30 % inhibition
fold less affinity than DX-2647 [11]: 7 fold
IC50, IGF-IIE stimulated Ba/F3 cell proliferation (MTS) [12]: 3.12 µg/mL
IC50, IGF-II stimulated Ba/F3 cell proliferation (MTS) [13]: 0.68 µg/mL
B1: M0064-F02 Fab (Fab, V domains shown)
VH: EVQLLESGGGLVQPGGSLRLSCAASGFTFSNYIMWWVRQAPGKGLEWVSVISSSGGMTRYADSVKGRFTISRDNSKNTLYLQMNSLRAEDTAVYYCARDNGDYVGEKGFDIWGQGTMVTVSS
VL: DIQMTQSPSSLSASVGDRVTITCRASQSISNYLNWYQQKPGKAPKLLIYTASTLQSGVPSRFSGSASGTDFTLTINSLQPEDFATYSCQQSYNSPWTFGQGTKVEIKR
notes: soluble Fab (sFab); also the Fab crystallised with IGF-II; also called R0032-A11; 566A-M0064-F02

Kd [14]: 28 nM
binding result (IGFBP-1): no binding
binding result [15]: no binding
Kd [16]: 17 nM
koff [16]: 0.1 s⁻¹
kon [16]: 5.8e+06 M⁻¹ s⁻¹
Kd [17]: < 0.023 nM
koff [17]: < 2e-05 s⁻¹
kon [17]: 2.06e+06 M⁻¹ s⁻¹
Kd [18]: 0.0226 nM
koff [18]: 2.38e-05 s⁻¹
kon [18]: 1.06e+06 M⁻¹ s⁻¹
Kd [19]: 0.023 nM
B2: DX-2647 (antibody, human IgG1, kappa, V domains shown)
VH: B1 VH with M57G, R59L
VL: B1 VL with A66G, N76S, S87Y
notes: human IgG1, germlined from 566A-M0064-F02, expressed in CHOK1SV cells
